In IntAct's records for PubMed 20869963:

B1: Protein Rex (Human T-cell leukemia virus 1 (strain Japan ATK-1 subtype A)), P0C205 (parent)
chain: MPKTRRRPRRSQRKRPPTPWPTSQGLDRVFFSDTQSTCLETVYKATGAPSLGDYVRPAYIVTPYWPPVQSIRSPGTPSMDALSAQLYSSLSLDSPPSPPREPLRPSRSLPRQSLIQPPTFHPPSSRPCANTPPSEMDTWNPPLGSTSQPCLFQTPDSGPKTCTPSGEAPLSACTSTSFPPPSPGPSCPT

Variants of: B1
Conditions: with dicer_human DICER1, Q9UPY3

| Variant | effect of a mutation on the interaction |
| --- | --- |
| L92A | decreasing interaction |
| L90A | decreasing interaction |

Variants of: B1
Conditions: with dicer_human DICER1, Q9UPY3
Remark: another data set of the same source

| Variant | effect of a mutation on the interaction |
| --- | --- |
| T119D | disrupting interaction |
| H121L | disrupting interaction |
| F120L | disrupting interaction |

Variants of: B1
Conditions: with dicer_human DICER1, Q9UPY3
Remark: another data set of the same source

| Variant | effect of a mutation on the interaction |
| --- | --- |
| R6D | decreasing interaction |
| R5D | decreasing interaction |
| R7D | decreasing interaction |

Variants of: B1
Conditions: with dicer_human DICER1, Q9UPY3
Remark: another data set of the same source

| Variant | effect of a mutation on the interaction |
| --- | --- |
| W65L | disrupting interaction |
| Y64D | disrupting interaction |
